From PMC10823224 (2024)

Target: fusion-competent ectodomain of influenza virus A/PR8/34 (Ecto-PR8/34) hemagglutinin (influenza virus A/PR/8/34, UniProt P03452 18-528)
Experiment: BLI

fusion-competent ectodomain of influenza virus A/PR8/34 (Ecto-PR8/34) hemagglutinin, sequence (P03452 18-528): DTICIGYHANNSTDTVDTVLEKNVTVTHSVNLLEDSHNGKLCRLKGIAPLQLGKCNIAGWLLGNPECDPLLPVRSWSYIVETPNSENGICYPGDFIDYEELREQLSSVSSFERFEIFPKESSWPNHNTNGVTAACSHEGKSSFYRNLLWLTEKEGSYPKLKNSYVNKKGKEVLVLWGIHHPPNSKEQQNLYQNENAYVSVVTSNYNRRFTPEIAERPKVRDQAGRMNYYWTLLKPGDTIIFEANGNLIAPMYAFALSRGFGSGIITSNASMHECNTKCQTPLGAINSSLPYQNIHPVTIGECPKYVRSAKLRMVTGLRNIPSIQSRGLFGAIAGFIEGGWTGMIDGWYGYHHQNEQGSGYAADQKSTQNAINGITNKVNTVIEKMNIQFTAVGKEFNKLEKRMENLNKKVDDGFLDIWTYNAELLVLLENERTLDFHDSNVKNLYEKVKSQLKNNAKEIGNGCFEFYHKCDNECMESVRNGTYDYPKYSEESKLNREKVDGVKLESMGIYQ

B1: anti-HA antibody C179 (antibody, V domains shown)
VH: EVKLVESGGGLVQPGGSLRLSCGTSGFTLTDDYMTWVRQPPGKALEWLGFIRDRANGYTTEYSASVKGRFTISRDNSQSIVYLQMNTLRVEDSATYYCARPKGYFPYAMDYWGQGTSVIVSS
VL: DIQMTQSPASQSASLGESVTITCLASQTIGTWLAWYQQKPGKSPQLLIYAATSLADGVPSRFSGSGSGTKFSFKISSLQAEDFVSYYCQQLYSTPWTFGGGTRLEIKR
B1 showed a Kd of 0.0184 µM.
